Here are results for two molecules from publication PMC7363588, “Mapping of the FGF14:Nav1.6 complex interface reveals FLPK as a functionally active peptide modulating excitability” (Physiological Reports, 2020).

The test system of assay [1] is Nav channels. The settings on record: peptide sequences derived from the LITFILKK motif of Navβ4 cytoplasmic tail; ref Grieco, Malhotra, Chen, Isom, & Raman, 2005; White et al., 2019; cited from earlier work. From the text:
The presence of other accessory proteins that directly interact with Nav1.6 in the native system may contribute to the reported activity of FLPK. A critical determinant required for repetitive firing in MSN and Purkinje neurons is the Navβ4 accessory subunit (Ji et al., 2017; White et al., 2019).

In assay [2] the target is T1, FGF14-1b (aa 64-252), purified recombinant (human) (UniProt Q92915).
T1 sequence: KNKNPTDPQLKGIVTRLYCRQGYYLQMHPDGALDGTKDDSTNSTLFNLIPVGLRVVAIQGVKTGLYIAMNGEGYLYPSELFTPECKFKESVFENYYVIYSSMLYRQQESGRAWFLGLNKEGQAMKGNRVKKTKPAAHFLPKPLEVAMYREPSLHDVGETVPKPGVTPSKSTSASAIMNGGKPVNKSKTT
The experiment in a line: SPR; Biacore T100, 25°C; FGF14 (RU 16,000), FGF14 V160A (RU 18,000) or Nav1.6 C-tail (RU 12,000) amine-coupled on CM5 chip; peptides 1-100 µM in HBS-P+ at 50 µl/min, 180 s association, 180 s dissociation; 1:1 binding model. Background: In SPR one partner is held on a chip, and binding of the other changes the refractive index at the surface.

What is called koff is a measure of how fast the partners let go of each other. By kon is commonly meant the second-order rate constant of association.

As to LITFILKK, in assay [1], the “effect on fast inactivation and Na^+ currents” value was “prevent stable fast inactivation and generate resurgent and persistent Na^+ currents through a voltage‐dependent open‐channel block”.

B1: FLPK tetrapeptide (peptide)
peptide: FLPK
Regarding B1, in assay [2], the koff was found to be 0.000431 s⁻¹ and the kon amounted to 84.4 M⁻¹ s⁻¹.
